From publication PMC6208348 (Nature Communications, 2018) come the findings set out here.

In this assay the target is wild-type Src SH2 domain (UniProt P12931 151-248). The experiment in a line: fluorescence polarisation. The note with it: both partners purified.

Non-standard residues stand in square brackets, D forms with d. No end group written: not given here. pY = N[C@@H](Cc1ccc(OP(=O)(O)O)cc1)C(=O)O

One may read the Kd as a measure of binding affinity in units of concentration. Low values mean a tighter complex, high ones a looser complex. GG[pY]GG (source: synthetic peptide) [mini peptide GGpYGG]: the Kd is over 50 µM.
